This is an account of results in PMC7653511 (Journal of immunology (Baltimore, Md. : 1950), 2020).

Some results are limits rather than exact numbers.

One data set addresses HLA-E*01:01 (Homo sapiens, UniProt P13747, G128R). Kind of data set: UV-mediated peptide exchange binding assay. The following applies: s/p ratio, at least two independent experiments.
A further data set deals with Mamu-E. It is filed as binding, rhesus macaques. As to conditions: s/p ratio, at least two independent experiments.
A further data set concerns the target Qa-1^b (Mus musculus, UniProt P06339). Kind of data set: UV-mediated peptide exchange binding assay. More on the design: species or system mice. As to conditions: s/p ratio, at least two independent experiments.
Another data set addresses HLA-E*01:03 (Homo sapiens, UniProt P13747). Kind of data set: UV-mediated peptide exchange binding assay. The following applies: s/p ratio, at least two independent experiments.
Data set [1] deals with HLA-E*01:03 heavy chain with human β2-microglobulin (human). Kind of data set: HPLC size exclusion chromatography peptide competition binding assay. (SEC sorts molecules by how far they enter the pores of the column.)
Data set [2] addresses HLA-E*01:01 heavy chain with human β2-microglobulin (human). The data set is described as above.
A short description of data set [3]: Aggregation of the proteins with norleucine fluorescent standard peptide. The format is physicochemical. The following applies: norleucine vs methionine in position 2 of fluorescent standard peptide.
The test system of a further data set is HLA-E. The following applies: no reference given; cited from earlier work.
In data set [4] the target is HLA-E*01:03 heavy chain with human β2-microglobulin (human). Kind of data set: HPLC size exclusion chromatograph.
Data set [5] concerns the target HLA-E*01:01 heavy chain with human β2-microglobulin (human). Kind of data set: HPLC size exclusion chromatograph.

In the case of “pCMV P7-Ala: pCMV with Ala in position 7 (VLAPRTALL)”, the “Effect of alanine substitution on binding” value (shortened to “Effect”) with HLA-E*01:01, in the data set with Mamu-E, with Qa-1^b and with HLA-E*01:03 was “complete or almost complete loss of binding” throughout.

With “pCMV P2-Ala: pCMV with Ala in position 2 (VAAPRTLLL)”, the “Effect” value with HLA-E*01:01, in the data set on Mamu-E, in the data set with Qa-1^b and in the data set with HLA-E*01:03 was “considerable loss of binding” each time.

With Qdm (peptide), the IC50 in data set [1] and in data set [2] was under 100 µM in each case.

Take VXAPCTLLL: the “Unspecific aggregation of the proteins” value in data set [3] is listed as “reduced unspecific aggregation of the proteins”.

Consider VLAPRTLLL [pCMV], for which, in the data set on HLA-E, the “Known binding to HLA-E of control peptides” value was “high binding capacity to HLA-E”.

VL9 (peptide): the IC50 in data set [4] and in data set [5] was under 100 µM throughout.

For the substance “pCMV P9-Ala: pCMV with Ala in position 9 (VLAPRTLLA)”, the “Effect” value with HLA-E*01:01, in the data set with Mamu-E, in the data set with Qa-1^b and in the data set with HLA-E*01:03 was “complete or almost complete loss of binding” each time.

One may read the IC50 as the point on the concentration scale where inhibition reaches its midpoint. Read a low IC50 as inhibition by little substance.
